# Laboratory results published in publication PMC10844294, “A monoclonal antibody targeting a large surface of the receptor binding motif shows pan-neutralizing SARS-CoV-2 activity” (Nature Communications, 2024).
# Molecular target: T1, B.1.1.529 (BA.1) S1 + S2 trimer-His Recombinant Protein (SARS-CoV-2 Omicron BA.1 (B.1.1.529), strain)
# T1 construct: also called Omicron BA.1 trimeric spike; BA.1 spike
# Assay: cryo-EM structure
# Conditions: both partners purified
binder,measurement,value
"17T2 Fab fragment (Fab, V domains shown, also called Fab 17T2) VH: QVQLVQSGPEVKKPGTSVKVSCKAPVFTFSISAVQWVRQARGQRLEWIGWIVVGSGNTNYAQNFQERVTITTDMSTGTVYMELSGLRSEDTAMYYCAAPYCNRTTCYDGFDLWGQGTMVTVSS VL: EIVLTQSPGTLSLSPGERATLSCRASQSISSNYLAWYQQKPGQAPRLLIYGASSRATGIPDRFSGSGSGTDFTLSINRLEPEDFAMYYCQHYGGLSRWTFGQGTKVEIK",stoichiometry N,3 Fab per spike trimer
